Data on 44 molecules can be found in patent US20100135997A1 (MEDGENE, published 2010).

Where a chain is given by its changes, count along the chain named.

A word on the Kd: it is the constant that tells how readily two partners part at equilibrium. Low values mean tighter binding, high ones weaker binding. The term koff denotes the first-order rate constant of dissociation. Higher therefore signals a short-lived complex.

For the assay, the target named is T1, HLA-A*0201 loaded with the Carcinoembryonic antigen (CEA)-derived … peptide (biotin on the C-terminal biotinylation tag).
T1 construct: Soluble, biotinylated, immobilised on a streptavidin chip
In words: Biacore SPR. Put shortly:
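Surface plasmon resonance: soluble ILT-like molecule flowed at constant rate over flow cells bearing biotin-tag-captured peptide–MHC. Binding followed as RU change to derive affinity and kinetics.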
On the technique in general: In SPR one partner is held on a chip, and binding of the other changes the refractive index at the surface.

B1: SEQ ID NO 66 (receptor)
chain: MHLPKPTLWAEPGSVITMDQPVTLRCQGGQETQEYRLYREKKTAPWITRIPQELVKKGQFPIPSITWEHAGRYRCYYGSDTSQWSASSDPLELVVTGVYIKPTLSAQPSPVVNSGGNVTLQCDSQVAFDGFILCKEGEDEHPQCLNSQPHARGSSRAIFSVGPVSPSRRWWYRCYAYDSNSPYEWSLPSDLLELDVDG
notes: mutated soluble two domain ILT-2
Turning to B1, the Kd is at most 1000 nM and the koff is at most 2 s⁻¹.

B2: SEQ ID NO 119 (receptor)
chain: B1 chain with Y76M, Y77Q, G78Y, S79T, D80L, S82A, Q83G, W84R, A86E
notes: as for B1
B2 displayed a Kd of at most 1000 nM and a koff of at most 2 s⁻¹.

B3: SEQ ID NO 42 (receptor)
chain: B1 chain with M18L, D19Q, Q20S, V22L, E34Q, S82R, E140D, W171R
notes: as for B1
Molecule B3 had a Kd of at most 1000 nM and a koff of at most 2 s⁻¹.

B4: SEQ ID NO 50 (receptor)
chain: MHLPKPTLWAEPGSVITLQSPLTLRCQGGQETQQYRLYREKKTAPWITRIPQELVKKGQFPIPSITWEHAGRYRCYYGSDTRQWSASSDPLELVVTGVYIKPTLSAQPSPVVNSGGNVTLQCDSQVAFDGFILCKEGEDDHPQCLNSQPHARGSSRAIFSVGPVSPSRRWRYRCYAYMSWAPYEWSLPSDLLELDVDG
notes: as for B1
The molecule B4 displayed a Kd of at most 1000 nM and a koff of at most 2 s⁻¹.

B5: SEQ ID NO 26 (receptor)
chain: B4 chain with L22V, S179N
notes: as for B1
For the molecule B5, the Kd was at most 1000 nM and the koff was at most 2 s⁻¹.

B6: SEQ ID NO 122 (receptor)
chain: B1 chain with S79T, D80Q
notes: as for B1
In turn, B6 gave a Kd of at most 1000 nM and a koff of at most 2 s⁻¹.

B7: SEQ ID NO 113 (receptor)
chain: B1 chain with M18L, D19G
notes: as for B1
For B7, the Kd was at most 1000 nM and the koff is at most 2 s⁻¹.

B8: SEQ ID NO 110 (receptor)
chain: B1 chain with W171R
notes: as for B1
On to B8, for which the Kd is at most 1000 nM and the koff is at most 2 s⁻¹.

B9: SEQ ID NO 118 (receptor)
chain: B1 chain with S79T, D80Q, S82A, Q83G, W84R, A86E
notes: as for B1
Turning to B9, the Kd is at most 1000 nM and the koff was at most 2 s⁻¹.

B10: SEQ ID NO 27 (receptor)
chain: B4 chain with L22V, M178P, S179A, A181T
notes: as for B1
On to B10, for which the Kd is at most 1000 nM and the koff is at most 2 s⁻¹.

B11: SEQ ID NO 126 (receptor)
chain: B1 chain with L187D
notes: as for B1
Molecule B11 registered a Kd of at most 1000 nM and a koff of at most 2 s⁻¹.

B12: SEQ ID NO 115 (receptor)
chain: B1 chain with M18L, D19R, Q20S
notes: as for B1
The molecule B12 yielded a Kd of at most 1000 nM and a koff of at most 2 s⁻¹.

B13: SEQ ID NO 117 (receptor)
chain: B1 chain with M18L, D19E, Q20S
notes: as for B1
Molecule B13 registered a Kd of at most 1000 nM and a koff of at most 2 s⁻¹.

B14: SEQ ID NO 28 (receptor)
chain: B4 chain with L22V
notes: as for B1
B14: the Kd is at most 1000 nM and the koff is at most 2 s⁻¹.

B15: SEQ ID NO 49 (receptor)
chain: B4 chain with A181S
notes: as for B1
The molecule B15 showed a Kd of at most 1000 nM and a koff of at most 2 s⁻¹.

B16: SEQ ID NO 121 (receptor)
chain: B1 chain with S79G, D80Q, T81E, S82G, Q83A, W84R, A86E
notes: as for B1
In turn, B16 displayed a Kd of at most 1000 nM and a koff of at most 2 s⁻¹.

B17: SEQ ID NO 114 (receptor)
chain: B1 chain with M18L, D19G, Q20S
notes: as for B1
Turning to B17, the Kd was at most 1000 nM and the koff was at most 2 s⁻¹.

B18: SEQ ID NO 29 (receptor)
chain: B4 chain with L22V, A181S
notes: as for B1
B18 returned a Kd of at most 1000 nM and a koff of at most 2 s⁻¹.

B19: SEQ ID NO 6 (receptor)
chain: B4 chain with L22V, M178D, W180N, A181S
notes: as for B1
In turn, B19 gave a Kd of at most 1000 nM and a koff of at most 2 s⁻¹.

B20: SEQ ID NO 111 (receptor)
chain: B1 chain with R49L, E140G, R173W
notes: as for B1
The molecule B20 displayed a Kd of at most 1000 nM and a koff of at most 2 s⁻¹.

B21: SEQ ID NO 124 (receptor)
chain: B1 chain with L145D
notes: as for B1
B21 yielded a Kd of at most 1000 nM and a koff of at most 2 s⁻¹.

B22: SEQ ID NO 116 (receptor)
chain: B1 chain with M18L, D19Q, Q20S
notes: as for B1
For the molecule B22, the Kd was at most 1000 nM and the koff is at most 2 s⁻¹.

B23: SEQ ID NO 127 (receptor)
chain: B1 chain with C134S, C144S
notes: as for B1
B23: the Kd was at most 1000 nM and the koff was at most 2 s⁻¹.

B24: SEQ ID NO 24 (receptor)
chain: B4 chain with L22V, M178P, S179I, A181T
notes: as for B1
The molecule B24 displayed a Kd of at most 1000 nM and a koff of at most 2 s⁻¹.

B25: SEQ ID NO 125 (receptor)
chain: B1 chain with I158E
notes: as for B1
Molecule B25 yielded a Kd of at most 1000 nM and a koff of at most 2 s⁻¹.

B26: SEQ ID NO 112 (receptor)
chain: B1 chain with K41R
notes: as for B1
Take B26: the Kd was at most 1000 nM and the koff was at most 2 s⁻¹.

B27: SEQ ID NO 120 (receptor)
chain: B1 chain with Y76V, Y77I, G78Q, S79R, D80G, S82A, Q83G, W84R, A86E
notes: as for B1
Take B27: the Kd is at most 1000 nM and the koff is at most 2 s⁻¹.

B28: SEQ ID NO 25 (receptor)
chain: B4 chain with L22V, M178V, S179A
notes: as for B1
In turn, B28 displayed a Kd of at most 1000 nM and a koff of at most 2 s⁻¹.

B29: SEQ ID NO 135 (receptor)
chain: MGHLPKPTLWAEPGSVITMDQPVTLRCQGGQETQEYRLYREKKTAPWITRIPQELVKKGQFPIPSITWEHAGRYRCYYGSDTSQWSASSDPLELVVTGVYIKPTLSAQPSPVVNSGGNVTLQCDSPFIADGFILCKEGEDEHPQCLNSQPHARGSSRAIFSVGPVSPSRRWWYRCYAYMSWSPYEWSLPSDLLELDVDG
notes: as for B1
For the molecule B29, the Kd was at most 1000 nM and the koff is at most 2 s⁻¹.

B30: SEQ ID NO 134 (receptor)
chain: B29 chain with I128V, A129S
notes: as for B1
In turn, B30 registered a dissociation constant Kd of at most 1000 nM and a koff of at most 2 s⁻¹.

B31: SEQ ID NO 128 (receptor)
chain: B29 chain with F127W, I128V
notes: as for B1
Molecule B31 registered a Kd of at most 1000 nM and a koff of at most 2 s⁻¹.

B32: SEQ ID NO 129 (receptor)
chain: B29 chain with I128L, A129T
notes: as for B1
B32 came in with a Kd of at most 1000 nM and a koff of at most 2 s⁻¹.

B33: SEQ ID NO 131 (receptor)
chain: B29 chain with I128Q
notes: mutated soluble two domain ILT-2; also called c132
In the case of B33, the Kd was at most 1000 nM and the koff is at most 2 s⁻¹.

B34: SEQ ID NO 123 (receptor)
chain: B29 chain with E35Q, S83R, P126Q, F127V, I128A, A129F, E141D, W172R, M179D, W181N
notes: mutated soluble two domain ILT-2; also called Clone 64; c64
The molecule B34 yielded a Kd of at most 1000 nM and a koff of at most 2 s⁻¹.

B35: SEQ ID NO 37 (receptor)
chain: MGHLPKPTLWAEPGSVITMDQPVTLRCQGGQETQEYRLYREKKTAPWITRIPQELVKKGQFPIPSITWEHAGRYRCYYGSDTAGRSESSDPLELVVTGVYIKPTLSAQPSPVVNSGGNVTLQCDSQVAFDGFILCKEGEDEHPQCLNSQPHARGSSRAIFSVGPVSPSRRWWYRCYAYPAWTPYEWSLPSDLLELDVDG
notes: as for B1
Molecule B35 gave a Kd of at most 1000 nM and a koff of at most 2 s⁻¹.

B36: SEQ ID NO 35 (receptor)
chain: B35 chain with P179M, A180N, T182A
notes: as for B1
With B36, the Kd is at most 1000 nM and the koff was at most 2 s⁻¹.

B37: SEQ ID NO 39 (receptor)
chain: B35 chain with P179M, A180S, T182A
notes: as for B1
B37: the Kd is at most 1000 nM and the koff was at most 2 s⁻¹.

B38: SEQ ID NO 130 (receptor)
chain: B29 chain with F127W, I128L
notes: as for B1
In the case of B38, the Kd was at most 1000 nM and the koff was at most 2 s⁻¹.

B39: SEQ ID NO 41 (receptor)
chain: B35 chain with P179M, A180S, T182S
notes: as for B1
The molecule B39 displayed a Kd of at most 1000 nM and a koff of at most 2 s⁻¹.

B40: SEQ ID NO 31 (receptor)
chain: B35 chain with A180I
notes: as for B1
Take B40: the Kd is at most 1000 nM and the koff is at most 2 s⁻¹.

B41: SEQ ID NO 133 (receptor)
chain: B29 chain with I128L, A129S, R170K
notes: as for B1
With B41, the Kd was at most 1000 nM and the dissociation rate constant (koff) was at most 2 s⁻¹.

B42: SEQ ID NO 132 (receptor)
chain: B29 chain with D130E
notes: as for B1
As for B42, the Kd was at most 1000 nM and the koff is at most 2 s⁻¹.

B43: SEQ ID NO 136 (receptor)
chain: B29 chain with P126M, I128L, A129V
notes: as for B1
For the molecule B43, the Kd is at most 1000 nM and the koff is at most 2 s⁻¹.

B44: SEQ ID NO 33 (receptor)
chain: B35 chain with P179V, T182A
notes: as for B1
With B44, the Kd was at most 1000 nM and the koff is at most 2 s⁻¹.
